Source: the supplement of paper PMC10126150
± gives the standard deviation of the averaged measurements.

System: ATP
Experiment: switch fluorescence ratio, 500 uM ATP over buffer (Cy3 cluster intensity, sum of 5 cycles each) (fold (ratio)); higher = stronger signal-on switching upon ATP binding; sequences stand for … in TCGTCGGCAGCGTCAGATGTGTATAAGAGACAGTTTTTTTTTTTTTTTTTTTTTTTTT…TC
Conditions: aptamer strand: ATP DNA aptamer (quencher-CACCTGGGGGAGTATTGCGGAGGAAGG + anchor), 100 nM annealed; ATP concentration: 500 uM
How it was run: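 The quencher-labelled ATP aptamer, at 100 nM, was annealed to Cy3-labelled switching-strand clusters on a modified Illumina MiSeq flow-cell. The clusters were imaged in selection buffer, then after 15 min with 500 uM ATP at 22 °C, and this buffer/ATP cycle ran five times with NaOH stripping and re-annealing between runs. Per-cluster fluorescence ratios, summed target-cycle over summed buffer-cycle Cy3 intensity, were averaged per switch-domain sequence. Clusters outside 100-1000 RFU were excluded.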
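Also: ATP exposure 15 min at 22 °C before imaging.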

Row | Sequence | switch fluorescence ratio
1 | ATTCAACAAT | 1 ± 0.016
2 | ATTCAATCGG | 0.98 ± 0.024
3 | ATTCAATTGT | 0.974 ± 0.013
4 | ATTCACTCGT | 1.11 ± 0.13
5 | ATTCACTCTA | 1.08 ± 0.026
6 | ATTCAGGTGT | 2.66 ± 0.29
7 | ATTCATAGTA | 0.9772 ± 0.0064
8 | ATTCATCGCT | 1.0258 ± 0.00018
9 | ATTCATGAT | 0.969 ± 0.044
10 | ATTCATTTTA | 0.999 ± 0.034
11 | ATTCCATTTG | 1.03 ± 0.05
12 | ATTCCGGGCT | 1.05 ± 0.031
13 | ATTCCGGTCT | 0.978 ± 0.011
14 | ATTCCTAACA | 1.008 ± 0.0089
15 | ATTCCTAGGT | 1.33 ± 0.45
16 | ATTCCTCTAG | 1.318 ± 0.0041
17 | ATTCCTGGGA | 1.03 ± 0.018
18 | ATTCCTGGGC | 1.03 ± 0.027
19 | ATTCCTTTGT | 1.01 ± 0.026
20 | ATTCGATATG | 0.997 ± 0.011
21 | ATTCGCTTTT | 1 ± 0.042
22 | ATTCGGGGAC | 1.058 ± 0.009

Row | Sequence | switch fluorescence ratio
23 | ATTCGGGGTG | 1.05 ± 0.11
24 | ATTCGGGTTG | 0.985 ± 0.029
25 | ATTCGTATGT | 1.03 ± 0.03
26 | ATTCGTGGGG | 0.97 ± 0.032
27 | ATTCTAACGA | 1.032 ± 0.0036
28 | ATTCTACTGA | 1.06 ± 0.062
29 | ATTCTACTTA | 1.01 ± 0.018
30 | ATTCTCGTGC | 1.012 ± 0.0074
31 | ATTCTGACAC | 1.07 ± 0.028
32 | ATTCTGGGGG | 1.04 ± 0.048
33 | ATTCTGTACG | 1.05 ± 0.023
34 | ATTCTGTCGT | 1 ± 0.021
35 | ATTCTGTGGT | 0.97 ± 0.019
36 | ATTCTTAATG | 1.01 ± 0.021
37 | ATTCTTTGCC | 1.003 ± 0.006
38 | ATTGAAGGGT | 0.981 ± 0.034
39 | ATTGAATATT | 0.9935 ± 0.0015
40 | ATTGAATCAT | 1.005 ± 0.0033
41 | ATTGAATTAA | 1.04 ± 0.02
42 | ATTGAATTGT | 0.991 ± 0.037
43 | ATTGAGCCTG | 0.991 ± 0.022
44 | ATTGAGGAGA | 0.999 ± 0.033

Row | Sequence | switch fluorescence ratio
45 | ATTGAGGCAG | 0.9824 ± 0.0028
46 | ATTGAGGTTT | 0.992 ± 0.022
47 | ATTGAGTTCT | 1 ± 0.012
48 | ATTGATATGG | 0.981 ± 0.04
49 | ATTGATCGAT | 1.02 ± 0.035
50 | ATTGATGT | 1.0234 ± 0.00096
51 | ATTGATTAAC | 1.013 ± 0.0043
52 | ATTGATTAGA | 0.99 ± 0.043
53 | ATTGATTC | 0.9868 ± 0.0031
54 | ATTGATTGTG | 0.983 ± 0.026
55 | ATTGATTTGC | 0.997 ± 0.058
56 | ATTGCATAAT | 1.06 ± 0.078
57 | ATTGCATTTT | 1.28 ± 0.43
58 | ATTGCCCGCG | 1.0228 ± 0.00058
59 | ATTGCCGTCA | 0.998 ± 0.024
60 | ATTGCGGGCA | 0.982 ± 0.035
61 | ATTGCGTTAT | 1.03 ± 0.018
62 | ATTGCTGGGT | 0.985 ± 0.033
63 | ATTGCTGTAC | 1.56 ± 0.048
64 | ATTGCTGTTC | 1.03 ± 0.037
65 | ATTGCTTTGG | 0.9976 ± 0.0015
66 | ATTGGAAAGG | 0.985 ± 0.031

Row | Sequence | switch fluorescence ratio
67 | ATTGGAAGTT | 0.997 ± 0.014
68 | ATTGGAATGC | 1.26 ± 0.047
69 | ATTGGAATTG | 1.02 ± 0.035
70 | ATTGGAGTCG | 0.9477 ± 0.0084
71 | ATTGGATAGG | 1.01 ± 0.012
72 | ATTGGCAATA | 2.36 ± 1.9
73 | ATTGGCACGC | 1.36 ± 0.42
74 | ATTGGCAGGC | 1.05 ± 0.057
75 | ATTGGGAGAG | 1.02 ± 0.035
76 | ATTGGGAGC | 0.956 ± 0.015
77 | ATTGGGATT | 0.966 ± 0.046
78 | ATTGGGCATT | 1.018 ± 0.006
79 | ATTGGGGAAG | 0.996 ± 0.049
80 | ATTGGGGACT | 1.01 ± 0.019
81 | ATTGGGGAT | 1.02 ± 0.018
82 | ATTGGGGCCG | 1.01 ± 0.016
83 | ATTGGGGCTG | 0.9677 ± 0.006
84 | ATTGGGGGT | 1.026 ± 0.0062
85 | ATTGGGGGTC | 0.995 ± 0.05
